Publication PMC11065761 (The Journal of Biological Chemistry, 2024)

Target: C3b
Assay: SPR

B1: TriFu_no_linker (triple fusion complement inhibitor without polyglycine linker between DAF and FH) (other)
chain: DCGLPPDVPNAQPALEGRTSFPEDTVITYKCEESFVKIPGEKDSVICLKGSQWSDIEEFCNRSCEVPTRLNSASLKQPYITQNYFPVGTVVEYECRPGYRREPSLSPKLTCLQNLKWSTAVEFCKKKSCPNPGEIRNGQIDVPGGILFGATISFSCNTGYKLFGSTSSFCLISGSSVQWSDPLPECREIYCPAPPQIDNGIIQGERDHYGYRQSVTYACNKGFTMIGEHSIYCTVNNDEGEWSGPPPECRGGKCGPPPPIDNGDITSFPLSVYAPASSVEYQCQNLYQLEGNKRITCRNGQWSEPPKCLHPCVISREIMENYNIALRWTAKQKLYSRTGESVEFVCKRGYRLSSRSHTLRTTCWDGKLEYPTCAKRGHCQAPDHFLFAKLKTQTNASDFPIGTSLKYECRPEYYGRPFSITCLDNLVWSSPKDVCKRKSCKTPPDPVNGMVHVITDIQVGSRINYSCTTGHRLIGHSSAECILSGNTAHWSTKPPICQRIPCGLPPTIANGDFISTNRENFHYGSVVTYRCNLGSRGRKVFELVGEPSIYCTSNDDQVGIWSGPAPQCII
  Kd: 98 nM
